Test results as given in patent US20210363269A1 (ALX ONCOLOGY, published 2021).
Positions count from the first letter of the chain named. Names may count otherwise.

B1: S191 (scFv, V domains shown)
VH: DVQLVESGGGVVRPGESLRLSCAASGFSFSSYAMNWVRQAPGEGLEWVSRINSGGGGTDYAESVKGRFTISRDNSENTLYLQMNSLRAEDTAVYYCAKQYDWNGFFDYWGLGALVTVSS
VL: ETVLTQSPATLSVSPGERATLSCRASQTVGSKLAWHQQKPGQAPRLLIYDATNRATGIPDRFSGSGSGTDFTLTISGLQTEDSAVYYCQQYYYWPPYRFGGGTKVEIK
notes: also called clone 191
B2: S198 (scFv, V domains shown)
VH: B1 VH with Y32H
VL: B1 VL with G77S
B3: S213 (scFv, V domains shown)
VH: DVQLVESGGGVVRPGESLRLSCEASGFTFRNYYMTWVRQAPGEGLEWVSTISDTGDTAYYADSVKGRFTISRDNSKNSLYLQMNSLRADDTAIYYCAKSWIWWTFFDYWGLGTLVTVSS
VL: ALTQPASVSANLGGTVEITCSGGNSNHYGWYQQKSPGSAPVTLIYADTNRPSNIPSRFSGSTSGSTTTLTITGVQAEDEAVYYCGGSSTGDGIFGAGTTLTVL
notes: also called clone 213
B4: S214 (scFv, V domains shown)
VH: B3 VH with G8E, Y32S, D89E
VL: B3 VL with T67S
B5: S161 (scFv, V domains shown)
VH: DVQLVESGGGVVRPGESLRLSCAASGFTFSNFAMTWVRQAPGKGPEWVSLVSVTATTYYADSVKGRFTISRDNSKSTLYLQMNSLRAEDTAVYYCAKITWNNLFDYWGLGTLVTVSS
VL: EIVLTQSPGTLSLSPGERATLSCRASQTVGSKLAWYQQKPGQAPRLLIYDSSSRASGIPDRFSGSGSGTDFTLTISSLQSEDSAVYYCQQHNDWPPYTFGGGTKVEIK
notes: scFv-Fc format (VL-linker-VH on human IgG1 Fc)
B6: antibody 135 variant mut/mut (antibody, human IgG1, V domains shown)
VH: EVQLVESGGGVVQPGGSLRLSCAASGFSFSIYAVSWVRQAPGKGLEWVSTIGADDTYYADSVKGRFTISRDNSKNTLYLQMNSLRAEDTAVYYCAKDSTVGWSGDFFDYWGQGTLVTVSS
VL: EIVLTQSPATLSVSPGERVTLSCRASQNVRSDIAWYQQKPGQAPRLLIYAASSRDTGIPARFSGSGSGTDFTLTISSLQSEDFGVYYCQQYYDWPPFTFGGGTKVEIK
notes: Human IgG1 with L234A/L235A/G237A/N297A; Labels are in the order VL/VH
B7: 135 wt/wt_M34V (antibody, human IgG1, V domains shown)
VH: B6 VH with E1D, Q13R, G16E, K43E, Q112L
VL: B6 VL with L21F, A60D
notes: human IgG1 with L234A, L235A, G237A, N297A
B8: 119 wt/wt_M34V (antibody, human IgG1, V domains shown)
VH: B6 VH with E1D, V5L, I31N, Y32F, S35T, K43E, A53S, D54G, G101S, Q112L
VL: EIVLTQSPATLSVSPGERATFSCRASQNVKNDLAWYQQRPGQAPRLLIYAARIRETGIPERFSGSGSGTEFTLTITSLQSEDFAVYYCQQYYDWPPFTFGGGTKVEIK
notes: as for B7
B9: antibody 135 variant wt/mut (antibody, human IgG1, V domains shown)
VH: B6 VH
VL: B6 VL with L21F, A60D
notes: as for B6
B10: 135 wt/wt_M34L (antibody, human IgG1, V domains shown)
VH: B6 VH with E1D, Q13R, G16E, V34L, K43E, Q112L
VL: B6 VL with L21F, A60D
notes: as for B7
B11: antibody 135 variant mut/wt (antibody, human IgG1, V domains shown)
VH: B6 VH with E1D, Q13R, G16E, V34M, K43E, Q112L
VL: B6 VL
notes: as for B6
B12: antibody 135 wt/wt (parental) (antibody, human IgG1, V domains shown)
VH: B6 VH with E1D, Q13R, G16E, V34M, K43E, Q112L
VL: B6 VL with L21F, A60D
notes: Human IgG1 with L234A/L235A/G237A/N297A; Labels are in the order VL/VH; also called AB135a
B13: 119 wt/wt_M34L (antibody, human IgG1, V domains shown)
VH: DVQLLESGGGVVQPGGSLRLSCAASGFSFSNFALTWVRQAPGEGLEWVSTIGSGDTYYADSVKGRFTISRDNSKNTLYLQMNSLRAEDTAVYYCAKDSTVSWSGDFFDYWGLGTLVTVSS
VL: B8 VL
notes: as for B7

Legend:
[1] = molecular target: T1, mouse 129 SIRP-α D1 domain (mouse (129 strain), UniProt P97797 32-150); assay: SPR
T1 construct: also called m129
T1 chain: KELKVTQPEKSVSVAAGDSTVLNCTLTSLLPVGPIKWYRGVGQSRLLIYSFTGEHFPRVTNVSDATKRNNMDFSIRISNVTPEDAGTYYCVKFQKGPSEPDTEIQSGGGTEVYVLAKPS
Outline: (§1)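 Antibody clones in scFv-Fc format were captured from pre-filtered culture media onto anti-human IgG Fc, amine-coupled (about 4000 RU) on a GLC chip of a ProteOn XPR36 instrument. SIRP analytes were flowed in PBS pH 7.4 with 0.01% Tween-20 at 25° C. Data were double-referenced against interspot and buffer-blank responses. Dissociation rate constants (koff) were derived by fitting a 1:1 Langmuir model.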

[2] = molecular target: T2, NOD mouse SIRP-α D1 domain (mouse (NOD strain)); assay: SPR
T2 chain: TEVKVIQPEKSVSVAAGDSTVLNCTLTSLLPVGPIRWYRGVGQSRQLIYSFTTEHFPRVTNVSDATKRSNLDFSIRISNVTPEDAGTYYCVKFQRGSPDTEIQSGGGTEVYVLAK
Outline: as §1

[3] = molecular target: T3, C57BL/6 mouse SIRP-α D1 domain (mouse (C57BL/6 strain), UniProt P97797 32-148); assay: SPR
T3 sequence: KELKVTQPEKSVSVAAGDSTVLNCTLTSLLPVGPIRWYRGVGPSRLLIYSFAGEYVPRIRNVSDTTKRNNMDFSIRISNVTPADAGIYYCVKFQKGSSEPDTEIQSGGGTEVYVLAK
Outline: as §1

[4] = molecular target: T4, high affinity SIRP-α D1 variant CV1-3; assay: SPR, Langmuir fit
T4 chain: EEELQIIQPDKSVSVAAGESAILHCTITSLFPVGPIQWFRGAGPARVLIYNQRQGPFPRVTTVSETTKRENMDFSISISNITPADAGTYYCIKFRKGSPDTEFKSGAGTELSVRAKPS
Outline: as §1

[5] = molecular target: T5, human SIRP-α v1 D1 domain (human, UniProt P78324 31-149); assay: SPR, Langmuir fit
T5 construct: also called human v1
Outline: as §1

[6] = molecular target: T6, human SIRP-α v2 D1 domain (human); assay: SPR, Langmuir fit
T6 construct: also called human v2
Outline: as §1

[7] = molecular target: T7, cynomolgus SIRP-α D1 domain (cyno1) (cynomolgus monkey, UniProt Q5TFQ8 30-148 (human entry), limits assumed); assay: SPR, Langmuir fit
T7 chain: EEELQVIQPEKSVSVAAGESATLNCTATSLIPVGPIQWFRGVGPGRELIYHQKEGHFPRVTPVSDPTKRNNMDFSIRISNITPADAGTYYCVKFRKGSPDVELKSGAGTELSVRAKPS
Outline: as §1

[8] = molecular target: T8, cynomolgus SIRP-α D1 domain (cyno2) (cynomolgus monkey, UniProt Q5TFQ8 30-148 (human entry), limits assumed); assay: SPR, Langmuir fit
T8 chain: T7 chain with E19D, A27V, T28S, V42A, H51N, Q52L, P62A
Outline: as §1

human SIRPβ isoform 1 [9] = molecular target: T9, human SIRPβ isoform 1 (human, UniProt O00241 30-148); assay: SPR, Langmuir fit
T9 construct: also called SIRPb; sirpb1
T9 sequence (O00241 30-148 limits assumed): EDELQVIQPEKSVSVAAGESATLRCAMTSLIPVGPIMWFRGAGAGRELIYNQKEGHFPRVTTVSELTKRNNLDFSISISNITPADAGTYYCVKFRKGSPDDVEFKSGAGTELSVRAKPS
Outline: as §1

human SIRPβ isoform 1 [10] = molecular target: T9, human SIRPβ isoform 1; assay: SPR
Outline: as §1

human SIRPγ isoform 1 [11] = molecular target: T10, human SIRPγ isoform 1 (human, UniProt Q9P1W8 29-147); assay: SPR
T10 construct: also called SIRPg; sirpg
Outline: as §1

[12] = molecular target: T11, human SIRP-α v1 D1 domain (human, UniProt P78324 31-149); assay: SPR, antibody immobilised on GLC chip
T11 construct: also called human v1; human α v1
Protocol: (§2) All experiments were performed at 25° C. using a SPR-based ProteOn XPR36 biosensor (BioRad, Inc, Hercules, Calif.) equipped with GLC or NLC sensor chips. […] Purification was carried out by standard Protein A affinity column chromatography and eluted antibodies were stored in PBS buffer.
(§3) For the method using GLC chip, the analytes were injected and flowed over anti-SIRPα antibodies immobilized (˜1000 RUs) on GLC chips using Proteon™ Amine Coupling Kit. For the immobilization step, GLC chip was activated with EDAC/Sulpho-NHS 1:1 (Biorad) diluted 1/100 for 300 s at 25 μL/min. Anti-SIRPα antibodies were diluted to 80 nM concentration in 10 mM sodium acetate buffer pH 4.5 and immobilized to the chip at 30 μL/min for 50 s. Chip was inactivated with ethanolamine for 300 s at 25 μL/min. The analytes (e.g., SIRP-α from different species, SIRP-β, SIRP-γ) were injected in a “one-shot” kinetic mode at nominal concentrations of 100, 33, 11, 3.7, 1.2 and 0 nM. Association times were monitored for 90 s at 100 μL/min, and dissociation times were monitored for 1200 s. The surfaces were regenerated with a 2:1 v/v blend of Pierce IgG elution buffer/4M NaCl.

human SIRPγ isoform 1 [13] = molecular target: T12, human SIRPγ isoform 1 (human, UniProt Q9P1W8 29-147); assay: SPR, antibody immobilised on GLC chip
T12 construct: also called sirpg; sirp-g
Protocol: as §2, §3

[14] = molecular target: T13, human SIRP-α v2 D1 domain (human); assay: SPR, antibody immobilised on GLC chip
T13 construct: also called human v2; human α v2
Protocol: as §2, §3

[15] = molecular target: T14, cynomolgus SIRP-α D1 domain (SEQ ID NO:11) (cynomolgus, UniProt Q5TFQ8 30-148 (human entry), limits assumed); assay: SPR, antibody immobilised on GLC chip
T14 construct: also called cyno1
T14 chain: T7 chain
Protocol: as §2, §3

[16] = molecular target: T15, human SIRP-α v1 D1 domain (human, UniProt P78324 31-149); assay: SPR, antibody immobilised on GLC chip
T15 construct: biotinylated and captured on avidin in the ELISA; also called human v1
Outline: (§4)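 Antibodies purified with Protein A were amine-coupled (~1000 RU) to a ProteOn XPR36 GLC chip, and SIRP analytes were injected one-shot at 100, 33, 11, 3.7, 1.2 and 0 nM in PBS pH 7.4 with 0.01% Tween-20 at 25° C. Each run used 90 s association at 100 μL/min followed by 1200 s dissociation. KD was derived as kd/ka from a global Langmuir fit to double-referenced sensorgrams.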

[17] = molecular target: T16, human SIRP-α v2 D1 domain (human); assay: SPR, antibody immobilised on GLC chip
T16 construct: biotinylated and captured on avidin in the ELISA; also called human v2
Outline: as §4

Binder | binding result [3] | koff [4] | koff [6] | koff [7] | koff [8] | Kd [12] | Kd (human SIRPγ isoform 1 [13]) | Kd [14] | Kd [15] | binding result [16] | binding result [17] | also measured
B1 | no binding (tested: Koff > 5 × 10^3 (legend)) | 0.000295 s⁻¹ | 3.53e-05 s⁻¹ | 5.54e-05 s⁻¹ | 1.38e-05 s⁻¹ |  |  |  |  |  |  | binding result [1]: no binding (tested: Koff > 5 × 10^3 (legend)); binding result [2]: no binding (tested: Koff > 5 × 10^3 (legend)); koff [5]: 6.67e-05 s⁻¹; koff (human SIRPβ isoform 1 [9]): 1.01e-05 s⁻¹
B2 | no binding (tested: Koff > 5 × 10^3 (legend)) | 0.000787 s⁻¹ | 4.95e-05 s⁻¹ | 8.34e-05 s⁻¹ | 7.73e-05 s⁻¹ |  |  |  |  |  |  | binding result [1]: no binding (tested: Koff > 5 × 10^3 (legend)); binding result [2]: no binding (tested: Koff > 5 × 10^3 (legend)); koff [5]: 3.67e-05 s⁻¹; koff (human SIRPβ isoform 1 [9]): 4.72e-05 s⁻¹
B3 | no binding (tested: Koff > 5 × 10^3 (legend)) | 0.00482 s⁻¹ | 0.000685 s⁻¹ | 0.0026 s⁻¹ | 0.00313 s⁻¹ |  |  |  |  |  |  | binding result (human SIRPβ isoform 1 [10]): no binding (tested: Koff > 5 × 10^3 (legend))
B4 | no binding (tested: Koff > 5 × 10^3 (legend)) | 0.00453 s⁻¹ | 0.000677 s⁻¹ | 0.00351 s⁻¹ | 0.00271 s⁻¹ |  |  |  |  |  |  | binding result (human SIRPβ isoform 1 [10]): no binding (tested: Koff > 5 × 10^3 (legend))
B5 | no binding (tested: Koff > 5 × 10^3 (legend)) |  | 0.000348 s⁻¹ |  | 0.00215 s⁻¹ |  |  |  |  |  |  | binding result (human SIRPγ isoform 1 [11]): no binding (tested: Koff > 5 × 10^3 (legend)); binding result [1]: no binding (tested: Koff > 5 × 10^3 (legend)); koff [5]: 0.00337 s⁻¹; koff (human SIRPβ isoform 1 [9]): 0.00321 s⁻¹
B6 |  |  |  |  |  | 192 pM | 733 pM | 17.5 pM | 127 pM |  |  | 
B7 |  |  |  |  |  |  |  |  |  | binds | binds | 
B8 |  |  |  |  |  |  |  |  |  | binds | binds | 
B9 |  |  |  |  |  | 184 pM | 779 pM | 19.7 pM | 125 pM |  |  | 
B10 |  |  |  |  |  |  |  |  |  | binds | binds | 
B11 |  |  |  |  |  | 149 pM | 522 pM | 26.6 pM | 102 pM |  |  | 
B12 |  |  |  |  |  | 151 pM | 539 pM | 29 pM | 96.9 pM |  |  | 
B13 |  |  |  |  |  |  |  |  |  | binds | binds | 
